Series [1] concerns the target N-terminal domain of Vibrio cholerae ParD2 as crystallised (V. cholerae). Description: crystal structure.
The target is the same in series [2]. As to the kind of experiment: crystal structure. The source holds these as a separate data set.
Series [3] deals with the molecule itself. Description: native MS.
Series [4] deals with the molecule itself. As to the kind of experiment: […]; pH 8.0 and pH 5.6, […].
Series [5] concerns the molecule itself. As to the kind of experiment: SAXS (SEC-SAXS). (In general: In gel filtration, larger molecules generally elute earlier.)

“And” between values parts separate entries of the source, which are not always exact repeats. Equal entries are not always repeated. Where two headings read alike, the source gives them in different places.

Broadly, the stoichiometry N is the number of molecules, sites or subunits per partner or assembly.

Take “N-terminal domain of Vibrio cholerae ParD2 as crystallised (domain or fragment)”: the stoichiometry N in series [1] stood at 2; in series [2], 16.

B1: Vibrio cholerae ParD2 antitoxin (natural protein)
chain: MAKNTSITLGEHFDGFITSQIQSGRYGSASEVIRSALRLLENQETKLQSLRQLLIEGEQSGDADYDLDSFINELDSENIR
notes: also called VcParD2
As to B1, the “stoichiometry N” value was 2 and 4 in series [3]; 10 and 8 in series [4]; 12 in series [5].

Values taken from article PMC8251345, “Entropic pressure controls the oligomerization of the Vibrio cholerae ParD2 antitoxin” (Acta Crystallographica. Section D, Structural Biology, 2021).
